This note sets out measurements from patent publication US20250368745A1 (published 2025).

T1: human IL-18BP (human, UniProt O95998 31-194)
T1 construct: UniProt printed as 095998; also called hIL-18BP
T1 sequence: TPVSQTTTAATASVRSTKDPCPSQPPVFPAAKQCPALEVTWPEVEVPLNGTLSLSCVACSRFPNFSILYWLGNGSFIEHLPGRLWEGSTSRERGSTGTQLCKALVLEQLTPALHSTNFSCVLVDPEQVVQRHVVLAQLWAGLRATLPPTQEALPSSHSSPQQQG

B1: SA301a HC-Y59G (antibody, name in Kabat numbering, V domains shown)
VH: QVQLQESGPGLVKPSQTLSLTCTVSGYSITSDYNSHWIRQPPGKGLEWIGYIHYSGSTNGNPSLKSRVTISRDTSKNQFSLKLSSVTAADTAVYYCARNYGSIYVNYFDYWGQGTLVTVSS
VL: EIVLTQSPATLSLSPGERATLSCSASSSVSYMYWYQQKPGQAPRPLIYRTSNLASGIPARFSGSGSGTDFTLTISSLEPEDFAVYYCQQYHSYPTFGGGTKVEIK
notes: IgG1 kappa
B2: SA301a HC-Y59T (antibody, name in Kabat numbering, V domains shown)
VH: B1 VH with G60T
VL: B1 VL
notes: IgG1 kappa
B3: SA301a HC-Y59N (antibody, name in Kabat numbering, V domains shown)
VH: B1 VH with G60N
VL: B1 VL
notes: IgG1 kappa
B4: SA301a HC-Y59R (antibody, name in Kabat numbering, V domains shown)
VH: B1 VH with G60R
VL: B1 VL
notes: IgG1 kappa
B5: SA301a HC-Y59K (antibody, name in Kabat numbering, V domains shown)
VH: B1 VH with G60K
VL: B1 VL
notes: IgG1 kappa
B6: SA301a HC-Y59L (antibody, name in Kabat numbering, V domains shown)
VH: B1 VH with G60L
VL: B1 VL
notes: IgG1 kappa
B7: SA301a HC-Y59S (antibody, name in Kabat numbering, V domains shown)
VH: B1 VH with G60S
VL: B1 VL
notes: IgG1 kappa
B8: SA301a HC-Y59Q (antibody, name in Kabat numbering, V domains shown)
VH: B1 VH with G60Q
VL: B1 VL
notes: IgG1 kappa
B9: SA301a HC-Y59P (antibody, name in Kabat numbering, V domains shown)
VH: B1 VH with G60P
VL: B1 VL
notes: IgG1 kappa
B10: SA301a HC-Y59V (antibody, name in Kabat numbering, V domains shown)
VH: B1 VH with G60V
VL: B1 VL
notes: IgG1 kappa
B11: SA302a HC-T30G (antibody, V domains shown)
VH: B1 VH with T30G, S35A, G60Y
VL: B1 VL
B12: SA302a HC-S31V (antibody, V domains shown)
VH: B1 VH with S31V, S35A, G60Y
VL: B1 VL
B13: SA302a HC-S31L (antibody, V domains shown)
VH: B1 VH with S31L, S35A, G60Y
VL: B1 VL
B14: SA302a HC-T30E (antibody, V domains shown)
VH: B1 VH with T30E, S35A, G60Y
VL: B1 VL
B15: SA302a HC-S31G (antibody, V domains shown)
VH: B1 VH with S31G, S35A, G60Y
VL: B1 VL
B16: SA302a HC-T30Y (antibody, V domains shown)
VH: B1 VH with T30Y, S35A, G60Y
VL: B1 VL
B17: SA302a HC-T30N (antibody, V domains shown)
VH: B1 VH with T30N, S35A, G60Y
VL: B1 VL
B18: SA302a HC-T30V (antibody, V domains shown)
VH: B1 VH with T30V, S35A, G60Y
VL: B1 VL
B19: SA302a HC-S31I (antibody, V domains shown)
VH: B1 VH with S31I, S35A, G60Y
VL: B1 VL
B20: SA302a HC-T30S (antibody, V domains shown)
VH: B1 VH with T30S, S35A, G60Y
VL: B1 VL
B21: SA302a HC-S31N (antibody, V domains shown)
VH: B1 VH with S31N, S35A, G60Y
VL: B1 VL
B22: SA302a HC-T30Q (antibody, V domains shown)
VH: B1 VH with T30Q, S35A, G60Y
VL: B1 VL
B23: SA302a HC-T30M (antibody, V domains shown)
VH: B1 VH with T30M, S35A, G60Y
VL: B1 VL
B24: SA302a HC-T30F (antibody, V domains shown)
VH: B1 VH with T30F, S35A, G60Y
VL: B1 VL
B25: SA302a HC-S31T (antibody, V domains shown)
VH: B1 VH with S31T, S35A, G60Y
VL: B1 VL
B26: SA302a HC-S31H (antibody, V domains shown)
VH: B1 VH with S31H, S35A, G60Y
VL: B1 VL
B27: SA302a HC-T30I (antibody, V domains shown)
VH: B1 VH with T30I, S35A, G60Y
VL: B1 VL
B28: SA302a HC-T30A (antibody, V domains shown)
VH: B1 VH with T30A, S35A, G60Y
VL: B1 VL
B29: SA302a HC-S31Y (antibody, V domains shown)
VH: B1 VH with S31Y, S35A, G60Y
VL: B1 VL
B30: SA302a HC-T30L (antibody, V domains shown)
VH: B1 VH with T30L, S35A, G60Y
VL: B1 VL
B31: SA302a HC-S31F (antibody, V domains shown)
VH: B1 VH with S31F, S35A, G60Y
VL: B1 VL
B32: SA302a HC-H35E (antibody, V domains shown)
VH: B1 VH with S35A, H36E, G60Y
VL: B1 VL
notes: IgG1 kappa
B33: SA302a HC-D33Q (antibody, V domains shown)
VH: B1 VH with D32Q, S35A, G60Y
VL: B1 VL
notes: IgG1 kappa
B34: SA302a HC-H35A (antibody, V domains shown)
VH: B1 VH with S35A, H36A, G60Y
VL: B1 VL
notes: IgG1 kappa
B35: SA302a HC-D33V (antibody, V domains shown)
VH: B1 VH with D32V, S35A, G60Y
VL: B1 VL
notes: IgG1 kappa
B36: SA302a HC-H35K (antibody, V domains shown)
VH: B1 VH with S35A, H36K, G60Y
VL: B1 VL
notes: IgG1 kappa
B37: SA302a HC-D33E (antibody, V domains shown)
VH: B1 VH with D32E, S35A, G60Y
VL: B1 VL
notes: IgG1 kappa
B38: SA302a HC-H35P (antibody, V domains shown)
VH: B1 VH with S35A, H36P, G60Y
VL: B1 VL
notes: IgG1 kappa
B39: SA302a HC-D33G (antibody, V domains shown)
VH: B1 VH with D32G, S35A, G60Y
VL: B1 VL
notes: IgG1 kappa
B40: SA302a HC-H35M (antibody, V domains shown)
VH: B1 VH with S35A, H36M, G60Y
VL: B1 VL
notes: IgG1 kappa
B41: SA302a HC-H35V (antibody, V domains shown)
VH: B1 VH with S35A, H36V, G60Y
VL: B1 VL
notes: IgG1 kappa
B42: SA302a HC-H35T (antibody, V domains shown)
VH: B1 VH with S35A, H36T, G60Y
VL: B1 VL
notes: IgG1 kappa
B43: SA302a HC-D33Y (antibody, V domains shown)
VH: B1 VH with D32Y, S35A, G60Y
VL: B1 VL
notes: IgG1 kappa
B44: SA302a HC-D33T (antibody, V domains shown)
VH: B1 VH with D32T, S35A, G60Y
VL: B1 VL
notes: IgG1 kappa

Substitutions are numbered along the chain they refer to. Names may count otherwise. “And” between values parts separate entries of the source, which are not always exact repeats. Equal values may be shown once.

One test concerns the target T1, human IL-18BP. As to the kind of experiment: BLI, apparent KD.
With B1, the Kd amounted to 1.59 nM.

For B2, the Kd stood at 0.14 nM.

Turning to B3, the Kd worked out at 0.79 nM.

For B4, the Kd is 0.42 nM.

Turning to B5, the Kd stood at 0.12 nM.

In the case of B6, the Kd stood at 0.42 nM.

For B7, the Kd worked out at 1.57 nM.

For the molecule B8, the Kd is 0.35 nM.

Consider B9, for which the Kd is 0.08 nM.

As for B10, the Kd worked out at 0.38 nM.

The next test addresses T1, human IL-18BP. Kind of test: BLI, apparent KD. This is another data set of the same source. On the technique in general: BLI is a label-free optical method that tracks binding on a fibre tip over time.
As for B11, the Kd was found to be 1.38 nM.

Turning to B12, the Kd came out at 1.09 nM.

On to B13, for which the Kd was found to be 0.98 nM.

Turning to B14, the Kd is 2.08 nM.

For B15, the Kd worked out at 1.64 nM.

With B16, the Kd was 1.15 nM.

Regarding B17, the Kd came out at 1.5 nM.

On to B18, for which the Kd was determined as 1.08 nM.

Consider B19, for which the Kd is 1.01 nM.

Turning to B20, the Kd was found to be 0.66 nM.

As for B21, the Kd was 0.98 nM.

In the case of B22, the Kd stood at 1.28 nM.

Consider B23, for which the Kd was determined as 1.54 nM.

In the case of B24, the Kd amounted to 1.29 nM.

As to B25, the Kd was determined as 1.02 nM.

B26: the Kd turned out to be 0.57 nM.

On to B27, for which the Kd is 1.79 nM.

Turning to B28, the Kd was 1.32 nM.

For the molecule B29, the Kd was determined as 1.11 nM.

For B30, the Kd worked out at 1.22 nM.

B31: the Kd is 0.79 nM.

For B32, the Kd was 1.57 nM.

For B33, the Kd came out at 2.92 nM.

As for B34, the Kd was determined as 6.41 nM.

As for B35, the Kd is 5.42 nM.

B36: the Kd came out at 0.44 nM.

On to B37, for which the Kd came to 1.76 nM.

B38: the Kd was 0.88 nM.

With B39, the Kd came to 3.95 nM.

As to B40, the Kd was 2.18 nM.

Turning to B41, the Kd turned out to be 2.42 nM.

Take B42: the Kd came to 2.23 nM.

As for B43, the Kd was determined as 3.79 nM.

Turning to B44, the Kd was 5.17 nM and 8.95 nM.
